Assay results from patent US20190040115A1 (IMMATICS BIOTECHNOLOGIES, published 2019).

Target: T1, HLA-A*02:01 (human)
T1 construct: captured on streptavidin plates; also called peptide-receptive MHC molecules
Assay: UV peptide exchange ELISA (anti-b2m); yield grade: + >10%, ++ >20%, +++ >50, ++++ >75%
Description: Candidate peptides for T cell based therapies according to the present invention were further tested for their MHC binding capacity (affinity). The individual peptide-MHC complexes were produced by UV-ligand exchange, where a UV-sensitive peptide is cleaved upon UV-irradiation, and exchanged with the peptide of interest as analyzed. Only peptide candidates that can effectively bind and stabilize the peptide-receptive MHC molecules prevent dissociation of the MHC complexes. To determine the yield of the exchange reaction, an ELISA was performed based on the detection of the light chain (β2m) of stabilized MHC complexes. The assay was performed as generally described in Rodenko et al. (Rodenko et al., 2006).
96 well MAXISorp plates (NUNC) were coated over night with 2 ug/ml streptavidin in PBS at room temperature, washed 4× and blocked for 1 h at 37° C. in 2% BSA containing blocking buffer. Refolded HLA-A*02:01/MLA-001 monomers served as standards, covering the range of 15-500 ng/ml. Peptide-MHC monomers of the UV-exchange reaction were diluted 100 fold in blocking buffer. Samples were incubated for 1 h at 37° C., washed four times, incubated with 2 ug/ml HRP conjugated anti-β2m for 1 h at 37° C., washed again and detected with TMB solution that is stopped with […]. Absorption was measured at 450 nm. Candidate peptides that show a high exchange yield (preferably higher than 50%, most preferred higher than 75%) are generally preferred for a generation and production of antibodies or fragments thereof, and/or T cell receptors or fragments thereof, as they show sufficient avidity to the MHC molecules and prevent dissociation of the MHC complexes.

Binder | peptide exchange yield [%]
LMDETMKEL | > 75
SLDAVMPHL | 50 to 75
SLDQIIQHL | 50 to 75
NVDENVAEL | 20 to 50
TLIELLLPKL | > 75
FLEDLVPYL | > 75
FLDVKELML | > 75
RLPDQFSKL | 50 to 75
SLGLGFISRV | 50 to 75
LLGEGIPSA | > 75
RLDDKTTNV | 50 to 75
KQQASQVLV | 50 to 75
SLKQTVVTL | 50 to 75
QLMEGKVVL | > 75
FLPQKIIYL | > 75
KMTQYITEL | > 75
TLSEICEFI | > 75
NLREILQNV | 50 to 75

More lines, now with the values ahead:

peptide exchange yield [%] | Binder
50 to 75 | VLDVSFNRL
> 75 | YLFAFLNHL
20 to 50 | VIDDLIQKL
20 to 50 | TVIRPLPGL
20 to 50 | VVDDIVSKL
> 75 | TMIEICEKL
50 to 75 | VLDTLTKVL
> 75 | TLVAFLQQV
50 to 75 | VLYSLVSKI
50 to 75 | YVDDFGVSV
50 to 75 | YIDDVFMGL
50 to 75 | VLPAVLTRL
